Results on 1 substance are retold here after patent publication US20100297135A1.

The target of assay [1] is wild type human GM-CSF (human) (UniProt P04141). The assay is described as follows: SPR (Biacore), human GM-CSF coated on CM5 chip, antibody injected.
The target of assay [2] is human GM-CSF mutant M5b (S96 to N110 replaced by murine sequence) (human). The assay is described as follows: semi-quantitative ELISA; GM-CSF polypeptide coated in 2-fold dilutions (x axis = coating concentration), BD antibody fixed at 310 ng/ml, rabbit anti-rat IgG-HRP, absorbance 450 nm.
Assay [3] deals with human GM-CSF mutant M5 (I101 to V117 replaced by murine sequence) (human). The description is as above.
Chain of human GM-CSF mutant M5 (I101 to V117 replaced by murine sequence) (human) (P04141 other isoform, or with tags, fused parts or gaps mutant): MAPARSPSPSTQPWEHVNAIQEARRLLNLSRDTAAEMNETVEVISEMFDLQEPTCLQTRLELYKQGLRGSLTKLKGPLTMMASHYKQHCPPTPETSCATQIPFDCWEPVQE

Chain of wild type human GM-CSF (human) (P04141 other isoform, or with tags, fused parts or gaps limits assumed): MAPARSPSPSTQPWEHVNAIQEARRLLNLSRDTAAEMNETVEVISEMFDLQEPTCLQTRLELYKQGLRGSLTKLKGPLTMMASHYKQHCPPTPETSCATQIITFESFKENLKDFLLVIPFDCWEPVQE
Chain of human GM-CSF mutant M5b (S96 to N110 replaced by murine sequence) (human) (P04141 other isoform, or with tags, fused parts or gaps mutant): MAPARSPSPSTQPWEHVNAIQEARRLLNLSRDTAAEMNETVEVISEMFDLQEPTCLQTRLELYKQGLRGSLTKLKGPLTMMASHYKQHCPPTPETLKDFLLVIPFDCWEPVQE

In assay [1], “commercially available rat anti-human GM-CSF antibody from BD Biosciences (Cat No. 554501)” yielded a Ka greater than 5.2e+09 M⁻¹, a Kd of less than 0.19 nM, a koff of less than 1e-05 s⁻¹ and a kon of 52000 M⁻¹ s⁻¹. The substance also returned an EC50 (read off the curve) in assay [2] of 400 µg/mL. In assay [3], this substance showed an EC50 (read off the curve) of 300 µg/mL.
